Here are results for five molecules from publication PMC8387031, “Structures of Substrate Complexes of Foamy Viral Protease-Reverse Transcriptase”.

In data set [1] the target is MFV PR-RT ΔRH (deletion variant of MFV PR-RT that lacked the RH domain) (marmoset foamy virus (MFV)). Briefly: crystal structure; MFV PR-RT ΔRH at 5 mg/ml with 13-bp dsDNA with a 2-nt 5' overhang (substrate 2) at a 1:1 molar ratio; hanging drop; 0.1 M DL-malic acid pH 7.0, 10% PEG 3350; space group C 2.
Another data set addresses MFV PR-RT ΔRH (marmoset foamy virus, UniProt D5JWV1 1-588). Description: X-ray crystallography; asymmetric homodimer; 1:1 mix; GF/MALS: 20 mM HEPES pH 7.0, 250 mM NaCl, 5% glycerol, 0.5 mM EDTA, 1 mM DTT; cryo-EM: 150 mM NaCl, 20 mM HEPES pH 7.0, 1 mM DTT; crystals: N1 Morpheus MES-imidazole pH 6.5, 18 C; N2 0.1 M DL-malic acid pH 7.0, 10% PEG 3350. Particulars: protein: recombinant; tags: 6xHis-SUMO (pET28 vector); chain copies: 2; 13 bp, 5' overhang 2 nt on template.

In data set [2] the target is T1, MFV PR-RT full-length (marmoset foamy virus, UniProt D5JWV1 1-751). Description: GF/MALS; 2:1 protein:NA; 0.5 mM EDTA; single peak 123.3 kDa, one protein per hybrid; GF/MALS: 20 mM HEPES pH 7.0, 250 mM NaCl, 5% glycerol, 0.5 mM EDTA, 1 mM DTT; cryo-EM: 150 mM NaCl, 20 mM HEPES pH 7.0, 1 mM DTT; crystals: N1 Morpheus MES-imidazole pH 6.5, 18 C; N2 0.1 M DL-malic acid pH 7.0, 10% PEG 3350. The settings on record: protein: recombinant; tags: 6xHis-SUMO (pET28 vector); 28 bp, 5' overhang 6 nt on RNA.

Data set [3] has as its target T1, MFV PR-RT full-length. Description: X-ray crystallography; monomer; 1:1 mix; GF/MALS: 20 mM HEPES pH 7.0, 250 mM NaCl, 5% glycerol, 0.5 mM EDTA, 1 mM DTT; cryo-EM: 150 mM NaCl, 20 mM HEPES pH 7.0, 1 mM DTT; crystals: N1 Morpheus MES-imidazole pH 6.5, 18 C; N2 0.1 M DL-malic acid pH 7.0, 10% PEG 3350. Particulars: protein: recombinant; tags: 6xHis-SUMO (pET28 vector); 15 bp; RNA 5' overhang 2 nt and 3' overhang 1 nt; recessed DNA 3' end.

Data set [4] concerns the target T1, MFV PR-RT full-length. Description: cryo-EM (4.8 A); asymmetric dimer; EMD-12698; GF/MALS: 20 mM HEPES pH 7.0, 250 mM NaCl, 5% glycerol, 0.5 mM EDTA, 1 mM DTT; cryo-EM: 150 mM NaCl, 20 mM HEPES pH 7.0, 1 mM DTT; crystals: N1 Morpheus MES-imidazole pH 6.5, 18 C; N2 0.1 M DL-malic acid pH 7.0, 10% PEG 3350. The settings on record: protein: recombinant; tags: 6xHis-SUMO (pET28 vector); 22 bp, 5' overhang 2 nt on template.

Broadly, the stoichiometry N is a count of units in the complex or per binding partner.

As to “MFV PR-RT ΔRH (deletion variant of MFV PR-RT that lacked the RH domain) (domain or fragment)”, in data set [1], the stoichiometry N was found to be 2.

B1: substrate 2 dsDNA (dsDNA)
DNA 1: AACAGAGTGCGACAC
DNA 2: GTGTCGCACTCTG
In the case of B1, the binding result with MFV PR-RT ΔRH is on record as “binds”.

B2: GF/MALS RNA/DNA hybrid (DNA:RNA)
RNA: GUGAGCGAACAGAGUGCGACACCUGAUUCCAUGA
DNA: TCATGGAATCAGGTGTCGCACTCTGTTC
For the molecule B2, the binding result in the data set with MFV PR-RT full-length [2] is “binds”.

B3: substrate 1 PPT RNA/DNA hybrid (DNA:RNA)
RNA: UUCUUGUCCAGGAGAGGG
DNA: CCTCTCCTGGACAAG
In the case of B3, in the data set with MFV PR-RT full-length [3], the binding result is given as “binds”.

B4: substrate 3 dsDNA (dsDNA)
DNA 1: AACAGAGTGCGACACCTGATTCCA
DNA 2: TGGAATCAGGTGTCGCACTCTG
For the molecule B4, the binding result in the data set with MFV PR-RT full-length [4] is “binds”.
